We go through four molecules from publication PMC10628199, “Structural and functional investigations of syn-copalyl diphosphate synthase from Oryza sativa” (Communications Chemistry, 2023).

“And” between values parts separate entries of the source, which are not always exact repeats. Equal values may be shown once.

One data set deals with T1, OsCyc1 (full-length) (Oryza sativa, UniProt Q0JF02).
T1 construct: gene CPS4
The note with it: pH 8.0, 16 °C, 2 h, no added Mg2+; product syn-CPP.

A further data set addresses T2, OsCyc1^69–767 (Oryza sativa, UniProt Q0JF02, D367A).
T2 construct: gene CPS4
As to conditions: 0.1 mM GGPP soaked; 20 mM Tris-HCl pH 8.0, 200 mM NaCl, 2 mM DTT, 5 mM MgCl2; active site between beta and gamma domains.

Data set [1] deals with OsCyc1^D367A mutant (in complex with the substrate GGPP) (Oryza sativa) (UniProt Q0JF02). Kind of data set: cryo-EM structure; OsCyc1 D367A at 3 mg/mL in buffer B, soaked with 0.1 mM GGPP; hexamer used as initial model for 3D classification; 4.0 Å.
Data set [2] deals with the molecule itself. The experiment in a line: crystal structure; OsCyc1 69-767 at 10 mg/mL, hanging drop, 18 °C, 2% 1,4-dioxane, 0.1 M Tris pH 8.0, 15% PEG 3,350; space group P212121, hexamer in the asymmetric unit; 3.5 Å.
Data set [3] deals with the molecule itself. Kind of data set: cryo-EM structure; WT OsCyc1 at 1.8 mg/mL in buffer B (20 mM Tris-HCl pH 8.0, 200 mM NaCl, 2 mM DTT, 5 mM MgCl2); dimers, tetramers and hexamers selected separately after 2D classification.

T1 sequence (Q0JF02 whole entry): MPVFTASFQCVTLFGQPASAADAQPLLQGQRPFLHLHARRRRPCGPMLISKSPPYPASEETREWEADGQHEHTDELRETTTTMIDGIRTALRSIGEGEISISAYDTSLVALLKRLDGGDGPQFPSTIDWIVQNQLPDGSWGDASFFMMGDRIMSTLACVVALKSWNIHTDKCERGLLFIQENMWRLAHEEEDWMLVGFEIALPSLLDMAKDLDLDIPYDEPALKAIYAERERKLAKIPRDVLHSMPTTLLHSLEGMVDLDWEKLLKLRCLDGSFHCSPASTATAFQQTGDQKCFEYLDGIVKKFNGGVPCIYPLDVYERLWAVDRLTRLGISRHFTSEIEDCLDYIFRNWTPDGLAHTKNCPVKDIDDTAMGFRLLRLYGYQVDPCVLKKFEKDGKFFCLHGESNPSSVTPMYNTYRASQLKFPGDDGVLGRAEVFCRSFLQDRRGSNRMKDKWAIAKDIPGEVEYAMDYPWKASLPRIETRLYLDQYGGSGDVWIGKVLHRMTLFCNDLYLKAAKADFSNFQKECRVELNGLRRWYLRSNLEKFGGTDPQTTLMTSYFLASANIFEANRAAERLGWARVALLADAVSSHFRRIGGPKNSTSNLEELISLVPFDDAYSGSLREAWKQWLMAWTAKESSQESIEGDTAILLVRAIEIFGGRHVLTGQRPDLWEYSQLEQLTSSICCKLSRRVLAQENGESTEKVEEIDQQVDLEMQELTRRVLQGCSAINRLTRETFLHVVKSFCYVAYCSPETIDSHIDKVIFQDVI
T2 sequence (Q0JF02 69-767 D367A): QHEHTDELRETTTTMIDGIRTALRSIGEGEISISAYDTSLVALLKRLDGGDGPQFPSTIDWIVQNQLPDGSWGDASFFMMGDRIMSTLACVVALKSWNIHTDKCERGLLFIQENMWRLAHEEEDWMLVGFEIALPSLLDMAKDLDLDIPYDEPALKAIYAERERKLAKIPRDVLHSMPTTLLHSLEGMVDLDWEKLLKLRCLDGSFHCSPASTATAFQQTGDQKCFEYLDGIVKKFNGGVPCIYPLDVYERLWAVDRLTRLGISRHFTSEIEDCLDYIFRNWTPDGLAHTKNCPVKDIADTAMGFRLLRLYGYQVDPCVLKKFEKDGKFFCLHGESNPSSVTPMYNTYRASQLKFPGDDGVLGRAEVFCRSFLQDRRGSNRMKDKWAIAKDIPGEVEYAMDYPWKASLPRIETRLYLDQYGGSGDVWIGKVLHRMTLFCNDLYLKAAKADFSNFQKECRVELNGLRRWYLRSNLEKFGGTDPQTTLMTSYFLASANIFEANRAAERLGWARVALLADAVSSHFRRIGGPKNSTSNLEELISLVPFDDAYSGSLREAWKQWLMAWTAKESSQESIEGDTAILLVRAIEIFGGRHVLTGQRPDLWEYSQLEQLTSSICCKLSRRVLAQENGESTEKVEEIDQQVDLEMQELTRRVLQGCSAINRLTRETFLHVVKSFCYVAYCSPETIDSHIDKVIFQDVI

Regarding `CC(C)=CCC/C(C)=C/CC/C(C)=C/CC/C(C)=C/COP(=O)(O)OP(=O)(O)O` [GGPP], the “GC-MS of dephosphorylated product” value on OsCyc1 (full-length) is given as “OsCyc1 catalyzes GGPP to form syn-CPP”. Also, the “cryo-EM structure of the complex, 4.0 A” value on OsCyc1^69–767 was “cryo-EM structure of the OsCyc1^D367A mutant in complex with substrate GGPP”. Broadly, the stoichiometry N is the number of molecules, sites or subunits per partner or assembly. “OsCyc1^D367A mutant (in complex with the substrate GGPP) (from UniProt Q0JF02 69-767) (enzyme)”: the stoichiometry N in data set [1] is 6.

B1: OsCyc1^69–767 (N-terminal truncation variant of syn-copalyl diphosphate synthase from Oryza sativa) (enzyme, UniProt Q0JF02 69-767, looked up)
chain: QHEHTDELRETTTTMIDGIRTALRSIGEGEISISAYDTSLVALLKRLDGGDGPQFPSTIDWIVQNQLPDGSWGDASFFMMGDRIMSTLACVVALKSWNIHTDKCERGLLFIQENMWRLAHEEEDWMLVGFEIALPSLLDMAKDLDLDIPYDEPALKAIYAERERKLAKIPRDVLHSMPTTLLHSLEGMVDLDWEKLLKLRCLDGSFHCSPASTATAFQQTGDQKCFEYLDGIVKKFNGGVPCIYPLDVYERLWAVDRLTRLGISRHFTSEIEDCLDYIFRNWTPDGLAHTKNCPVKDIDDTAMGFRLLRLYGYQVDPCVLKKFEKDGKFFCLHGESNPSSVTPMYNTYRASQLKFPGDDGVLGRAEVFCRSFLQDRRGSNRMKDKWAIAKDIPGEVEYAMDYPWKASLPRIETRLYLDQYGGSGDVWIGKVLHRMTLFCNDLYLKAAKADFSNFQKECRVELNGLRRWYLRSNLEKFGGTDPQTTLMTSYFLASANIFEANRAAERLGWARVALLADAVSSHFRRIGGPKNSTSNLEELISLVPFDDAYSGSLREAWKQWLMAWTAKESSQESIEGDTAILLVRAIEIFGGRHVLTGQRPDLWEYSQLEQLTSSICCKLSRRVLAQENGESTEKVEEIDQQVDLEMQELTRRVLQGCSAINRLTRETFLHVVKSFCYVAYCSPETIDSHIDKVIFQDVI
notes: plastid targeting peptide removed; codon-optimized synthetic gene; monomer 80.8 kDa; Cloned in pET-24a(+) between NdeI and XhoI 'including a His-tag'; this cloning would usually give a C-terminal His6 (surmise); also called truncated OsCyc1; pseudo-mature protein
On to B1, for which the “stoichiometry N” value in data set [2] worked out at 6.

B2: OsCyc1, wild type, as used for cryo-EM (enzyme, Oryza sativa)
chain: LISKSPPYPASEETREWEADGQHEHTDELRETTTTMIDGIRTALRSIGEGEISISAYDTSLVALLKRLDGGDGPQFPSTIDWIVQNQLPDGSWGDASFFMMGDRIMSTLACVVALKSWNIHTDKCERGLLFIQENMWRLAHEEEDWMLVGFEIALPSLLDMAKDLDLDIPYDEPALKAIYAERERKLAKIPRDVLHSMPTTLLHSLEGMVDLDWEKLLKLRCLDGSFHCSPASTATAFQQTGDQKCFEYLDGIVKKFNGGVPCIYPLDVYERLWAVDRLTRLGISRHFTSEIEDCLDYIFRNWTPDGLAHTKNCPVKDIDDTAMGFRLLRLYGYQVDPCVLKKFEKDGKFFCLHGESNPSSVTPMYNTYRASQLKFPGDDGVLGRAEVFCRSFLQDRRGSNRMKDKWAIAKDIPGEVEYAMDYPWKASLPRIETRLYLDQYGGSGDVWIGKVLHRMTLFCNDLYLKAAKADFSNFQKECRVELNGLRRWYLRSNLEKFGGTDPQTTLMTSYFLASANIFEANRAAERLGWARVALLADAVSSHFRRIGGPKNSTSNLEELISLVPFDDAYSGSLREAWKQWLMAWTAKESSQESIEGDTAILLVRAIEIFGGRHVLTGQRPDLWEYSQLEQLTSSICCKLSRRVLAQENGESTEKVEEIDQQVDLEMQELTRRVLQGCSAINRLTRETFLHVVKSFCYVAYCSPETIDSHIDKVIFQDVI
notes: syn-copalyl diphosphate synthase OsCyc1 (OsCPS4), Oryza sativa, wild type; the cryo-EM methods say only 'OsCyc1'); the deposited entries tell the construct; Probably the same protein as m1 or m2; also called WT OsCyc1; source: E. coli BL21(DE3), purified; in buffer B
With B2, the “stoichiometry N” value in data set [3] was 2 and 4 and 6.
